Test system: Escherichia coli TOP10
Assay: shrunken log2 fold change of peptide-encoding DNA abundance (4.5 h post-induction vs induction); higher = less antimicrobial activity (less host growth inhibition)
Conditions: time post-induction: 4.5 h; library: site-saturation at positions 5, 18, 19, 20
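Note: peptides expressed intracellularly from a pBAD plasmid library in pooled LB shake-flask culture, induced with 0.3% L-arabinose, DNA abundance read by NGS, three biological replicates, DESeq2 with apeglm shrinkage.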

Row | Sequence | shrunken log2 fold change
1 | RRIRPRPPRLPRPRPRPNVCPRP | -0.169
2 | RRIRHRPPRLPRPRPRPTLVPRP | -0.233
3 | RRIRRRPPRLPRPRPRPRVGPRP | 0.68
4 | RRIRQRPPRLPRPRPRPGGLPRP | 0.28
5 | RRIRIRPPRLPRPRPRPYPRPRP | -0.311
6 | RRIRCRPPRLPRPRPRPWYLPRP | -0.0282
7 | RRIRGRPPRLPRPRPRPNCSPRP | 0.99
8 | RRIRQRPPRLPRPRPRPLMNPRP | -0.131
9 | RRIRIRPPRLPRPRPRPLECPRP | 0.0303
10 | RRIRSRPPRLPRPRPRPAFPPRP | 0.278
11 | RRIRLRPPRLPRPRPRPIGDPRP | -0.118
12 | RRIRTRPPRLPRPRPRPQQAPRP | -0.0444
13 | RRIRWRPPRLPRPRPRPIQNPRP | -0.394
14 | RRIRGRPPRLPRPRPRPPQIPRP | 0.859
15 | RRIRCRPPRLPRPRPRPCGRPRP | -0.184
16 | RRIRQRPPRLPRPRPRPQQGPRP | -0.147
17 | RRIRKRPPRLPRPRPRPNTFPRP | -0.0899
18 | RRIRCRPPRLPRPRPRPHGYPRP | -0.108
19 | RRIRFRPPRLPRPRPRPYSVPRP | 0.062
20 | RRIRCRPPRLPRPRPRPKWMPRP | 0.361
21 | RRIRFRPPRLPRPRPRPNFDPRP | -0.181
22 | RRIRLRPPRLPRPRPRPQVQPRP | -0.0263
23 | RRIRSRPPRLPRPRPRPNNRPRP | -0.475
24 | RRIRPRPPRLPRPRPRPLAIPRP | 0.00474
25 | RRIRLRPPRLPRPRPRPHADPRP | -0.299

Row | Sequence | shrunken log2 fold change
26 | RRIRHRPPRLPRPRPRPRGQPRP | -0.0142
27 | RRIRWRPPRLPRPRPRPPIMPRP | 0.271
28 | RRIRNRPPRLPRPRPRPCVHPRP | -0.0018
29 | RRIRLRPPRLPRPRPRPPIKPRP | -0.179
30 | RRIRSRPPRLPRPRPRPDWAPRP | 0.236
31 | RRIRFRPPRLPRPRPRPYCVPRP | -1.23
32 | RRIRARPPRLPRPRPRPQWDPRP | 0.00442
33 | RRIRCRPPRLPRPRPRPLMIPRP | -0.431
34 | RRIRKRPPRLPRPRPRPVYLPRP | -0.326
35 | RRIRWRPPRLPRPRPRPCMWPRP | -0.0796
36 | RRIRDRPPRLPRPRPRPTMYPRP | -0.107
37 | RRIRHRPPRLPRPRPRPQFYPRP | -0.192
38 | RRIRDRPPRLPRPRPRPHIHPRP | -0.342
39 | RRIRVRPPRLPRPRPRPLWKPRP | -0.0321
40 | RRIRHRPPRLPRPRPRPTGDPRP | 0.208
41 | RRIRYRPPRLPRPRPRPKENPRP | -0.0772
42 | RRIRWRPPRLPRPRPRPSIWPRP | -0.353
43 | RRIRDRPPRLPRPRPRPEGCPRP | 0.0171
44 | RRIRVRPPRLPRPRPRPQYRPRP | -0.134
45 | RRIRSRPPRLPRPRPRPDIPPRP | -0.178
46 | RRIRNRPPRLPRPRPRPNVQPRP | -0.128
47 | RRIRNRPPRLPRPRPRPSSPPRP | 0.0179
48 | RRIRSRPPRLPRPRPRPPPSPRP | 0.785
49 | RRIRRRPPRLPRPRPRPTAGPRP | 0.109
50 | RRIRDRPPRLPRPRPRPTEPPRP | 0.185

Row | Sequence | shrunken log2 fold change
51 | RRIRARPPRLPRPRPRPWHRPRP | 0.00868
52 | RRIRVRPPRLPRPRPRPHCDPRP | -0.401
53 | RRIRARPPRLPRPRPRPSRRPRP | 0.297
54 | RRIRRRPPRLPRPRPRPQWIPRP | 0.064
55 | RRIRERPPRLPRPRPRPLTFPRP | -0.693
56 | RRIRPRPPRLPRPRPRPHKSPRP | -0.283
57 | RRIRQRPPRLPRPRPRPRGIPRP | -0.107
58 | RRIRYRPPRLPRPRPRPGVGPRP | -0.103
59 | RRIRHRPPRLPRPRPRPNIKPRP | -0.69
60 | RRIRHRPPRLPRPRPRPMWIPRP | -0.0176
61 | RRIRMRPPRLPRPRPRPPYSPRP | -0.0464
62 | RRIRMRPPRLPRPRPRPGPEPRP | 0.797
63 | RRIRERPPRLPRPRPRPRREPRP | 0.0467
64 | RRIRRRPPRLPRPRPRPEDHPRP | 0.122
65 | RRIRDRPPRLPRPRPRPTHDPRP | 0.666
66 | RRIRARPPRLPRPRPRPSYHPRP | -0.255
67 | RRIRCRPPRLPRPRPRPDSPPRP | -0.353
68 | RRIRCRPPRLPRPRPRPKIVPRP | -0.29
69 | RRIRRRPPRLPRPRPRPVSIPRP | -0.0599
70 | RRIRARPPRLPRPRPRPIDCPRP | 0.335
71 | RRIRNRPPRLPRPRPRPWCCPRP | 0.007
72 | RRIRARPPRLPRPRPRPLYGPRP | -0.203
73 | RRIRKRPPRLPRPRPRPQGSPRP | -0.0103
74 | RRIRDRPPRLPRPRPRPFQCPRP | 0.00675
75 | RRIRCRPPRLPRPRPRPPIEPRP | -0.0198
